Among the data in patent US20180030149A1 are Kd values, retold here.

The target in this experiment is recombinant human ErbB3 monomeric protein (cleaved rhErbB3) (human) (UniProt P21860). In words: SPR Biacore 37 C; antibody captured on anti-human Fc, cleaved rhErbB3 (monomer) injected. (In SPR one partner is held on a chip, and binding of the other changes the refractive index at the surface.)

As to U1-59 (antibody), the Kd (commonly a measure of binding affinity in units of concentration) worked out at 0.53 nM.
